The results in this text go back to publication PMC3834312.

Common to all, as to assay: MODified Histone Peptide Array
Experiment [1] deals with H2A K9ac (histone peptide array spots containing the mark). Conditions: whole cell lysate from HEK293 cells transiently transfected; ECL plus western blot detecting reagent; read off a plot. On the technique in general: A western blot detects proteins with antibodies after separation by electrophoresis.
Experiment [2] deals with H4 R3me2s (histone peptide array spots containing the mark). Conditions: whole cell lysate from HEK293 cells transiently transfected; ECL plus western blot detecting reagent; parent: est. 5.9; read off a plot.
The target of experiment [3] is H4 K12ac (histone peptide array spots containing the mark). The following applies: whole cell lysate from HEK293 cells transiently transfected; ECL plus western blot detecting reagent; parent: est. 8.1; read off a plot.
The target of experiment [4] is H4 R3me2a (histone peptide array spots containing the mark). Conditions: whole cell lysate from HEK293 cells transiently transfected; ECL plus western blot detecting reagent; parent: est. 5.9; read off a plot.
The target of experiment [5] is H4 K8ac (histone peptide array spots containing the mark). Conditions: whole cell lysate from HEK293 cells transiently transfected; ECL plus western blot detecting reagent; parent: est. 10; read off a plot.
The target of experiment [6] is H4 R19me2s (histone peptide array spots containing the mark). The following applies: whole cell lysate from HEK293 cells transiently transfected; ECL plus western blot detecting reagent; read off a plot.
Experiment [7] deals with H4 K5ac (histone peptide array spots containing the mark). The following applies: whole cell lysate from HEK293 cells transiently transfected; ECL plus western blot detecting reagent; parent: est. 9.4; read off a plot.
Experiment [8] addresses H2A K13ac (histone peptide array spots containing the mark). The following applies: whole cell lysate from HEK293 cells transiently transfected; ECL plus western blot detecting reagent; read off a plot.
Experiment [9] has as its target H4 R24me2a (histone peptide array spots containing the mark). The following applies: whole cell lysate from HEK293 cells transiently transfected; ECL plus western blot detecting reagent; read off a plot.
Experiment [10] concerns the target H4 S1P (histone peptide array spots containing the mark). The following applies: whole cell lysate from HEK293 cells transiently transfected; ECL plus western blot detecting reagent; parent: est. 5.3; read off a plot.

With “BRD4-SF-FLAG (BRD4 short isoform with a single FLAG epitope tag at the C-terminus) (from UniProt O60885-2) Y433A”, the other: Specificity Factor in experiment [1] stood at 4.4; in experiment [2], 5.5; in experiment [3], 6.1; in experiment [4] it was 6.7; in experiment [5], 13; in experiment [6], 3.4. In addition, the other: Specificity Factor in [7] was determined as 11; in experiment [8], 4.5; in [9], 3.9; in [10], 3.4.
